Test results published in paper PMC8989322 (PLoS Pathogens, 2022).

B1: mAb234 (antibody, V domains shown)
VH: EVQLVESGGGLVKPGGSLRLSCAASGFNFSTHIMNWVRQAPGKGLEWVSSISSSGTYIYYADSMKGRFTISRDNPKNSLYLQMNSLRAEDTAVYYCARARGFIQFHYYMDVWGKGTTVAVSS
VL: SYVLTQPPSVSVAPGKTARITCGGNNIGSKSVHWHQQRPGQAPVLVVYDDKIRPSGIPERFSGSNSGNTATLIISRVEAGDEADYYCQVWHSSSDPVVFGGGTKLTVL
notes: variable region as the heavy chain of m1 (PDB 7RXI); as the light chain of m1 (PDB 7RXI); IgG (captured by anti-human Fc); source: 293F cells, purified (Protein G Sepharose)
B2: Fab1512 (Fab, V domains shown)
VH: KVQLVQSGGGVVQPGRSQRLSCAASGLTLSEYAMHWVRQAPGKGLEWVAVILSDGTKKEYADSVKGRFTISRDNSKNTLYLQMNSLRAEDTAVYYCATDDNILGHCRSKSCQRNYYHGMDVWGQGTTVSVSS
VL: DIVMTQSPLSLPVTPGEPASISCRSSQSLLHSNGKNYLDWYLQKPGQSPQLLIYLGSDRASGVPDRFSGSGSGTDFTLSISRVEAEDVGVYYCMQALQTPFTFGPGTKVDIK
notes: heavy chain of Fab1512 (23-amino-acid CDR H3); light chain of Fab1512; From an RTS,S/AS01 vaccinee; beta-ctCSP class; source: ExpiCHO cells, purified (HiTrap Protein G HP, size exclusion chromatography)
B3: mAb236 (antibody, V domains shown)
VH: EVQLVESGGGLVQPGGSLRLSCVASGFNFTTYSMNWVRQAPGKGLEWVSYISSHSNLIYYATSVKGRFTISRDNAKNSLYLQMNSLRAEDTALYYCARGGSLHPSAGADWIDPWGQGTLVTVSS
VL: SYELTQAPSVSVSPGQTATITCSGDKLGDKFTSWYQQKPGQSPVLVIYQDSKRPSGIPERFSASNSGNTATLTISGTRAMDEADYYCQAWDSNTYVFGTGTRVAVL
notes: variable region as the heavy chain of m2 (PDB 7RXJ); as the light chain of m2 (PDB 7RXJ); IgG (captured by anti-human Fc); source: 293F cells, purified (Protein G Sepharose)
B4: mAb352 (antibody, V domains shown)
VH: EVQLVESGGGLVKPGGSLRLSCAASGFSFSEYRMNWVRQAPGKGLEWVSFISSSGTYIDYADSVKGRFTISRDNVNNSLYLQMNNLRAGDTAVYYCARGMGIAVRRFDYWGQGTLVSVSS
VL: SYVLTQPPSVSVAPGQTAKITCGGNNIGSESVHWYQQKPGQAPVLVVYDDAVRPSGIPERFSGSNSRNTATLTISRVEAGDEAAYYCQVWDSSTVASFGGGTKLTVL
notes: variable region as the heavy chain of m3 (PDB 7S0X); as the light chain of m3 (PDB 7S0X); IgG (captured by anti-human Fc); source: 293F cells, purified (Protein G Sepharose)
B5: mAb1512 (antibody, V domains shown)
VH: B2 VH
VL: B2 VL
notes: variable region as the heavy chain of m5 (PDB 7RXP); as the light chain of m5 (PDB 7RXP); IgG (captured by anti-human Fc); source: 293F cells, purified (Protein G Sepharose)
B6: Fab234 (Fab, V domains shown)
VH: B1 VH
VL: B1 VL
notes: heavy chain of Fab234; light chain of Fab234; From an RTS,S/AS01 vaccinee; alpha-ctCSP class (IGHV3-21 or IGHV3-48 with IGLV3-21 or IGLV3-1); source: ExpiCHO cells, purified (HiTrap Protein G HP, size exclusion chromatography)
B7: Fab236 (Fab, V domains shown)
VH: B3 VH
VL: B3 VL
notes: heavy chain of Fab236; light chain of Fab236; From an RTS,S/AS01 vaccinee; alpha-ctCSP class (IGHV3-21 or IGHV3-48 with IGLV3-21 or IGLV3-1); source: ExpiCHO cells, purified (HiTrap Protein G HP, size exclusion chromatography)
B8: Fab352 (Fab, V domains shown)
VH: B4 VH
VL: B4 VL
notes: heavy chain of Fab352; light chain of Fab352; From an RTS,S/AS01 vaccinee; alpha-ctCSP class (IGHV3-21 or IGHV3-48 with IGLV3-21 or IGLV3-1); source: ExpiCHO cells, purified (HiTrap Protein G HP, size exclusion chromatography)
B9: Fab1488 (Fab, V domains shown)
VH: EVHLVESGGGLVKPGGSLRLSCAASGFTFSSYTMNWVRQAPGKGLEWVSSISSSSTYIYYADSVRGRFTISRDNAKNSLYLQMNSLRAEDSAVYYCARRAGGFDAYYFDYWGQGTLVTVSS
VL: not shown
notes: heavy chain of Fab1488; light chain of Fab1488; From an RTS,S/AS01 vaccinee; alpha-ctCSP class (IGHV3-21 or IGHV3-48 with IGLV3-21 or IGLV3-1); source: ExpiCHO cells, purified (HiTrap Protein G HP, size exclusion chromatography)

Columns and labels:
[1] = target: T1, biotinylated ctCSP Pf16 peptide (residues 283–375 of P. falciparum 3D7 CSP) (Plasmodium falciparum 3D7, UniProt Q7K740, biotin (position not given)); experiment: ELISA; expressed mAbs screened for reactivity to Pf16 C-term peptide, as previously described [36]; conditions: both partners purified
T1 construct: circumsporozoite protein (CSP), P. falciparum 3D7, residues 283-375 (C-terminal domain); the results say biotinylated ctCSP (283-375); also called Pf16 C-term peptide; source: made by Biomatik (Wilmington, Delaware)
T1 sequence (Q7K740 283-375): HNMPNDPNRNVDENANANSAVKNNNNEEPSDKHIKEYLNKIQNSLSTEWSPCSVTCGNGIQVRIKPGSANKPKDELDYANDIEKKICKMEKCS

[2] = target: T2, αTSR domain or ctCSP (residues 310–375 of P. falciparum 3D7 CSP) (Plasmodium falciparum 3D7, UniProt Q7K740); experiment: crystal structure; Fab mixed with ctCSP (310-375) in a 2:1 molar ratio, complex purified by size exclusion chromatography, sitting drop vapor diffusion at 20°C; conditions: both partners purified
T2 construct: circumsporozoite protein (CSP), P. falciparum 3D7, residues 310-375 (αTSR domain), followed by a 6xHis tag; pET28a; also called 3D7 peptide; source: E. coli SHUFFLE, purified (Ni cOmplete resin, gel filtration on Superdex 200)
T2 sequence (Q7K740 310-375): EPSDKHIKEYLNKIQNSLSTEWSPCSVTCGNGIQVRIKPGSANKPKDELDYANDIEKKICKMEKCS

Row | Binder | binding result [1] | binding result [2]
1 | B1 | binds | 
2 | B2 |  | binds
3 | B3 | binds | 
4 | B4 | binds | 
5 | B5 | binds | 
6 | B6 |  | binds
7 | B7 |  | binds
8 | B8 |  | binds
9 | B9 |  | binds
